Laboratory results reported in paper PMC7808953 (Redox Biology, 2020).

Molecular target: the molecule itself
Experiment: native gel or EMSA

B1: hypochlorite-treated α2-macroglobulin (natural protein)
chain: SVSGKPQYMVLVPSLLHTETTEKGCVLLSYLNETVTVSASLESVRGNRSLFTDLEAENDVLHCVAFAVPKSSSNEEVMFLTVQVKGPTQEFKKRTTVMVKNEDSLVFVQTDKSIYKPGQTVKFRVVSMDENFHPLNELIPLVYIQDPKGNRIAQWQSFQLEGGLKQFSFPLSSEPFQGSYKVVVQKKSGGRTEHPFTVEEFVLPKFEVQVTVPKIITILEEEMNVSVCGLYTYGKPVPGHVTVSICRKYSDASDCHGEDSQAFCEKFSGQLNSHGCFYQQVKTKVFQLKRKEYEMKLHTEAQIQEEGTVVELTGRQSSEITRTITKLSFVKVDSHFRQGIPFFGQVRLVDGKGVPIPNKVIFIRGNEANYYSNATTDEHGLVQFSINTTNVMGTSLTVRVNYKDRSPCYGYQWVSEEHEEAHHTAYLVFSPSKSFVHLEPMSHELPCGHTQTVQAHYILNGGTLLGLKKLSFYYLIMAKGGIVRTGTHGLLVKQEDMKGHFSISIPVKSDIAPVARLLIYAVLPTGDVIGDSAKYDVENCLANKVDLSFSPSQSLPASHAHLRVTAAPQSVCALRAVDQSVLLMKPDAELSASSVYNLLPEKDLTGFPGPLNDQDNEDCINRHNVYINGITYTPVSSTNEKDMYSFLEDMGLKAFTNSKIRKPKMCPQLQQYEMHGPEGLRVGFYESDVMGRGHARLVHVEEPHTETVRKYFPETWIWDLVVVNSAGVAEVGVTVPDTITEWKAGAFCLSEDAGLGISSTASLRAFQPFFVELTMPYSVIRGEAFTLKATVLNYLPKCIRVSVQLEASPAFLAVPVEKEQAPHCICANGRQTVSWAVTPKSLGNVNFTVSAEALESQELCGTEVPSVPEHGRKDTVIKPLLVEPEGLEKETTFNSLLCPSGGEVSEELSLKLPPNVVEESARASVSVLGDILGSAMQNTQNLLQMPYGCGEQNMVLFAPNIYVLDYLNETQQLTPEIKSKAIGYLNTGYQRQLNYKHYDGSYSTFGERYGRNQGNTWLTAFVLKTFAQARAYIFIDEAHITQALIWLSQRQKDNGCFRSSGSLLNNAIKGGVEDEVTLSAYITIALLEIPLTVTHPVVRNALFCLESAWKTAQEGDHGSHVYTKALLAYAFALAGNQDKRKEVLKSLNEEAVKKDNSVHWERPQKPKAPVGHFYEPQAPSAEVEMTSYVLLAYLTAQPAPTSEDLTSATNIVKWITKQQNAQGGFSSTQDTVVALHALSKYGAATFTRTGKAAQVTIQSSGTFSSKFQVDNNNRLLLQQVSLPELPGEYSMKVTGEGCVYLQTSLKYNILPEKEEFPFALGVQTLPQTCDEPKAHTSFQISLSVSYTGSRSASNMAIVDVKMVSGFIPLKPTVKMLERSNHVSRTEVSSNHVLIYLDKVSNQTLSLFFTVLQDVPVRDLKPAIVKVYDYYETDEFAIAEYNAPCSKDLGNA
modifications: modified by hypochlorite (NaOCl); residues not given
stoichiometry N: 2
